The source of these data is the DeepSol protein solubility set.

This data set in a line: soluble on expression in E. coli; label from the status in PepcDB or PDB records.
On to “MTKLFLPNTQATQQLGITLGKNLTAGSVILLEGDLGAGKTTLVQGIGKGLGINESIVSPTFTLINEYIEGRIPLYHLDLYRLKPQEVTGLNLESYWEGIEVTPGIVAIEWAERMPYLPDSYFRVCLKSGEDGDRQLEITAVNCQMIDNLISS”, for which the “soluble on expression in E. coli” value is “not soluble”.
“MCLLTFAYQTNKRFPFVFAANRDEYYDRPTLFAHEWKEDPNVIGGRDLKKGGTWLGFTKEGKIAALTNVRDSFKHSGIPFQSRGFIVQDYLTSNTSAQLFMERLIQTADEFDGYNLVFGSYHDLYYYTNRMEKGEKLKPGYYMLSNGQMNSHWPKAVKVRTHLQSVLEREQDIETIIKKLLAIMQDEERFPDEQLPDTGVGIEWERILSPIFINGKTYGTRATTVIICTDEGESFFLEWNYGPMGIFLEKREFHIQLPSSYLNMKKDYELEHHHHHH”: the “soluble on expression in E. coli” value is listed as “not soluble”.
Take “MGSDKIHHHHHHMKMNHLDIAKEALVAQAQAVAKLADRLDGQFQSAVDLILACEGRTVVCGMGKSGLIGKKMVATFASTGTPSFFLHPAEAFHGDLGMLKPVDVLVLISYSGETEELIKLIPSLKSFGNKFIAMTGSGNSTLAKHADIWLDISVDREVCPNNLAPTTSTLATMAMGDALAVALITANQFKPMDFARYHPGGSLGRKLLTRVADVMHSPAPIVSPASSFQDCLLMMTQSRLGLAMVMDGNELVGIVTDGDLRRALLKNNQVIHASVTEFMTLNPHTIPADCRVSVAEAYMLENKIRALAVVDDCGAIVGVVEIFDGNPVA”: the “soluble on expression in E. coli” value was “not soluble”.
For the sequence “MGQGQSVILSFEDGARTVELARESVEAFVQNGQREQPGSMRDAFYNRTSAFVRLESTRGRGRLRGCAGAHGSIHELGNHDQQLGHAIVEAAIEAASEASCGSEVEDAELPNIRVSVCTVSNLVLTDDPIEDIELGVHGVAIDGDGQHGWMYPTLPVENDWSVFEYLDRTCRKANLPDGAWQDEDVMVTLFEGQVFRETGDEDDPVEELTALEHHHHHH”, the “soluble on expression in E. coli” value was “not soluble”.
With “MKKVLILSTSTGYGHNQAANSLMELIKNDDTEILVHDFLKENRFFDRSIVNGYDLCASSLGTLYGLLYKISNIKFINNLVSFLFLPVANKLAKFIHSFNPDLIITTHPLAVSILSYLKKRQIIKVPVISVVTDFKCHYTYVSKIIDHYIVACDFTKENLASKGIPKERISPFGIPVKQDFYKEDYHNYVENIIQSPLNILLMGGGMGLDNISKVLKTLIKNENPLNLTIVCGNNAELKEDLCKEYGHIKGNKKLNILGYTTEIPKIMKSSDLIITKPGGLTTTESLLSHLPMIIPFIIPGQESENREFLSKSNCAITINHLEELNKVINDLNKDNNKLINMRKSILDVLSSYSPEGTIKLCTKMLNDSYNKRRYLEHHHHHH” the entry was “soluble”.
With “MAGDPMNEEQRKSTSIDILAERDKKTKDYSKYFEHVYQPPSLKEARKRGKEEVNYNDDFQIDEKYRNMGQGKTFLIKTYGCQMNAHDTEVMAGILGALGYTPTEDINHADVILINTCAIRENAENKVFSEIGNLKHLKKEKPETVIGVCGCMSQEESVVNKILKSYQNVDMIFGTHNIHRLPEILEEAYLSKAMVVEVWSKEGDVIENLPKVREGNIKAWVNIMYGCDKFCTYCIVPFTRGKERSRRPEDIIDEVRDLARQGYKEITLLGQNVNAYGKDIDGLAYGLGDLLEDISKIDIPRVRFTTSHPWDFTDRMIEVIANGGNIVPHVHLPVQSGNNAVLKIMGRKYTRESYLDLVNRIKTHIPNVALTTDIIVGYPNETDEQFEETLTLYDEVEFEHAYTYIYSQRDGTPAAKMNDNVPLDVKKDRLQQLNKKVACYSERAMQQYEGQTVQVLCEGVSKKDDTVLSGYTSKNKLVNFKAPKSMIGKIVNVYIDEAKQFSLNGTFISVNDKTVVTQLEHHHHHH” the entry was “soluble”; with “MGSDKIHHHHHHMSRSIVEVYASWMPIDTPLLVGHLTFAETSRGGVFSFTYDKHFLASNYRLQIDPLLALHSGELYNDSADKNFRAFLDSSPDRWGRILMQRRAAIECRKGIRASAKLTELDYLLGVHDSYRMGGIRFKTAASLDFLDNNTEFSAPPMTSLRELEQAAMNIERDDNIDSDDYYRWLKMLISPGSSLGGARPKACVTDSEGHLWIAKFPNQNDTFDVGAWEMVCYQLALAAGIDMFPSEIRKFSTEHHTFLTKRFDRVGGKRIHFSSAMTQLQYYDGEQSDGASYLEIAEFLSNNGAQTKADLAQLWRRIVFNIAVSNTDDHLRNHGFLLSDKGWKLSPAYDLNPIVGKHGLHLNITDTANELDYALAFEVIDFFRLSREDATRIYDDVMGAVKGWQTVASRLGISRNEQLTKQEAFNV”, “not soluble”; with “GLNSVIKPTKYKPVPDEEPNSTDVEETLKRIQNNDPDLEEVNLNNIMNIPVPTLKACAEALKTNTYVKKFSIVGTRSNDPVAFALAEMLKVNNTLKSLNVESNFISGSGILALVEALQSNTSLIELRIDNQSQPLGNNVEMEIANMLEKNTTLLKFGYHFTQQGPRLRASNAMMNNNDLVRKRRL”, “soluble”.
Turning to “MDSVCPQGKYIHPQNNSICCTKCHKGTYLYNDCPGPGQDTDCRECESGSFTASENHLRHCLSCSKCRKEMGQVEISSCTVDRDTVCGCRKNQYRHYWSENLFQCFNCSLCLNGTVHLSCQEKQNTVCTCHAGFFLRENECVSCSNCKKSLECTKLCLPQIEN”, the “soluble on expression in E. coli” value is listed as “soluble”.
With “MKYQQLENLESGWKWKYLVKKHREGELITRYVEASAAQEAVNLLLALENEPVRVNVWIDRHMNPALLNRMKQTIRARRKRHFNAEHQHTRKKSIDLEFMVWQRLAGLAQRRGKTLSETIVQLIEDAEHKEKYATQMTTLKQDLQALLGKK” the entry was “not soluble”; with “MASRVDETTVPSYYYYVDPETTYTYQQPNPLQDLISVYGLDDISRQVARTNLDGTKAVKLRKSYKNQIADLSGKFSTIPTRENGKGGQIAHILFQNNPDMMIQPPQQGQNMSEQQWREQLRNRDIALFQPPNFDWDLCSSVLSQFERSYPSEFANQNQGGAQAPFDIDDLAFDLDGTGKSQSGSNSGNNSKKRKNKSSGSSMATPTHSDSHEDMKRRRLE”, “soluble”; with “MKLSKDTTALLKNFATINSGIMLKSGQFIMTRAVNGTTYAEANISDVIDFDVAIYDLNGFLGILSLVNDDAEISQSEDGNIKIADARSTIFWPAADPSTVVAPNKPIPFPVASAVTEIKAEDLQQLLRVSRGLQIDTIAITVKEGKIVINGFNKVEDSALTRVKYSLTLGDYDGENTFNFIINMANMKMQPGNYKLLLWAKGKQGAAKFEGEHANYVVALEADSTHDF”, “soluble”.
In the case of “MTAYLNALGVICALGDSREEVARRLFAGDSSGMVVESGWVPERALPVGAVKGALPAMPPAMRSQHSRNNQLLLAAALQIKDEIGQAIEQYGAGRIGVIIGTSTSGIDEASSSMASWLRDQTFPADYDYRQQELGAPANFLATWLQLSGPAYVISTACTSSARALLSARRALDMGLCDAVLCGGVDSLCKLTLNGFSALEAMSPQLCNPFSLNRNGINIGEAAALFLMTREAGSTHSIALLGAGANCDAHHISAPEPSGRGARDAMLQALSNARLEAAQISYLNLHGTATQLNDAMESLAVQAVFPEGVPCSSTKSLSGHTLGAAGALEIAFCWLSLVPHNTEHALPPQVWDGAADPLLPALHWTVPGARLAAADTRYMMSNSFAFGGNNISLIIGDAP”, the “soluble on expression in E. coli” value was “not soluble”.
Consider “MSLAPRPRILICEDDPDIARLLNLMLEKGGFDSDMVHSAAQALEQVARRPYAAMTVDLNLPDQDGVSLIRALRRDSRTRDLAIVVVSANAREGELEFNSQPLAVSTWLEKPIDENLLILSLHRAIDNMAEGKEGYLTITTDPNSSSVDKLAAALEHHHHHH”, for which the “soluble on expression in E. coli” value is “soluble”.
Turning to “MNRNKWQRVPAPNTRGAKMHGWVREMDEAYREVNGEYAVLVRTLNTKLGTVKHAAIRNATETDITWSEKQRIKNEIFGEEKQAIEFFPKQSELIDEANMYHLWILEDCELEFGIYE”, the “soluble on expression in E. coli” value is given as “not soluble”.
With “CSKPETNVVAQDGSTSAAAAQVETQTAESRYLALVDGYFKDYLKLEPIYATFVGVNDYNTQFGGDLTEEYLKARHDLNTRYLAQVKTIDLDELPADLQLSYSLFVYDREMALVDETYPSRFMPISQFYSTVITMVQLGSGESAQPFNTVQDYRNWEQRVNGFIDWIKLAQHRMDEGIASKVVLPRVLVERIIPQLDAMLTTDASQSIFYSPITHFPEGFSAQDKAELTASYQAMISERLVPTLTGLRDYFKQTYLPKSRATDGWSGLPNGKAWYQHLANSHTTTTMPVDEIHQIGLSEVARILSEMDKVREQVGFKGDLKAFFASLSSEPQYFYSDRQGLIDGYMALKDKINLVLPQYFNVMPKADYVVKPVESFREQSAAGASYEAPAVDGSRPGVFYINTYNLKAQPKWGMTTLSLHEAAPGHHFQIAIKQELTGVPEFQRFSGYTAFEEGWALYAEYLGIEMGLFSDPYQYFGKLSDEMLRAMRLVVDTGLHAKGWSREQAIQYMKDNSPMAESDIVAEVERYMAIPGQALSYKVGQLKILALRERAEKALGDKFDLKAFHDQILTSGSLPMAVMEQKIDRWIAANK” the entry was “not soluble”; with “MSRVPRTFAGWTEQMSSSGKMYYYNKKTEISQWDKPAEWPAEGGSAERDKPKGGVNEKPRFAEDRYNEYIGQLSSSSSCFWRQIGIFSLSSSSKYYLCASRFLPLSHSLLQFLREIRRRL”, “not soluble”; with “MGSDKIHHHHHHMIQPVSCICPIAAKLITSRPAQKLLPAPESTTARASEAATSLAAAITAASMCLSTAFILSARVRVTWATWSRISTDTRALSSAITAPPSGCRLNVACSLPRFGRAFQPDARARRTGSFPDRDLISPDLPLPACARAARSWAMTDSRQTPLAQSLPASVPFVGPETHERQRGAPFVARLGANENLFGVSPKAIAAMQASAAEIWKYGDAESYELRAALSALHGIAPEHIMVGEGIDGLLGNLVRLYVGAGDAVVTSLGAYPTFNYHVAGFGGDLHTVPYKDDHEDIKALMAKAHEVGAKLVYLANPDNPMGSWHRGADIVAALDDLPEGSLLVLDEAYVECAPKGTAAPVDVTDPRVIRMRTLSKAYGMAGARVGYAMGAVEVISAFHKVRNHFGMNRCAQIGATEAIKDQAWLAHVQAEIATAREEISRIARENGLTPLPSATNFVAIDCGRDGAFAKAVLEALVARDIFVRMPFAAPQNRCIRVSCGPERERRAFAEALPLALKDAQNGA”, “not soluble”.
As for “MSLATIKDVAQRAGLSISTVSRYLNHHPYISEDKKIKIQQAMDELDYVPNLVAMQLRSNKSYTIGIIVPRITNPYFAYLIDAIDKKIKGTPYHTLIMQTYNDKEEELRLLNMFKQRQIAGVIMGALENDIEVLETYTKYGPIILSADQSMQSDKVKIIHTTQRQTTYDAIQYLINKGYRNIAYCTDNNYYDHCFNKPRNVGFRVAMKDNGLDIRNEWIFNNVHTIEDGEQIGKILLRQEQLPDAIFTGSDEVALGLMHFMTAHQIDIPNQIAIMGYDNQPISSLLKIPLSTVNQPVNDIGMQLINYLLALLEETEFEINDNVLKLNIVERQSTEGHHHHHH”, the entry is “soluble”.
On to “SLRRVLMLEGCAQPTLSPNTNAATARVLDRLGISVMPANEAGCCGAVDYHLNAQEKGLARARNNIDAWWPAIEAGAEAILQTASGCGAFVKEYGQMLKNDALYADKARQVSELAVDLVELLREEPLEKLAIRGDKKLAFHCPCTLQHAQKLNGEVEKVLLRLGFTLTDVPDSHLCCGSAGTYALTHPDLARQLRDNKMNALESGKPEMIVTANIGCQTHLASAGRTSVRHWIEIVEQALEKE”, for which the “soluble on expression in E. coli” value is reported as “soluble”.
With “MVKETEYYDILGIKPEATPTEIKKAYRRKAMETHPDKHPDDPDAQAKFQAVGEAYQVLSDPGLRSKYDQFGKEDAVPQQGFEDASEYFT” the entry was “not soluble”.
